In data set [1] the target is dynein-dynactin-BicDR1 complex assembled with wtDyn (wtDDR) (human | pig | mouse) (UniProt Q14204). Description: three-color TIRF comigration with processive complexes.
Data set [2] has as its target wild-type human dynein (wtDyn) (human) (UniProt Q14204). Nature of the data set: single-molecule colocalization.
Data set [3] concerns the target WT dynein-GFP (human) (UniProt Q14204). Nature of the data set: real-time TIRF imaging of the initiation of motility.
Data set [4] deals with the molecule itself. Nature of the data set: mass photometry.

Usually stoichiometry N stands for a count of units in the complex or per binding partner.

Chain of dynein-dynactin-BicDR1 complex assembled with wtDyn (wtDDR) (human | pig | mouse) (Q14204 whole entry, looked up, one chain of several): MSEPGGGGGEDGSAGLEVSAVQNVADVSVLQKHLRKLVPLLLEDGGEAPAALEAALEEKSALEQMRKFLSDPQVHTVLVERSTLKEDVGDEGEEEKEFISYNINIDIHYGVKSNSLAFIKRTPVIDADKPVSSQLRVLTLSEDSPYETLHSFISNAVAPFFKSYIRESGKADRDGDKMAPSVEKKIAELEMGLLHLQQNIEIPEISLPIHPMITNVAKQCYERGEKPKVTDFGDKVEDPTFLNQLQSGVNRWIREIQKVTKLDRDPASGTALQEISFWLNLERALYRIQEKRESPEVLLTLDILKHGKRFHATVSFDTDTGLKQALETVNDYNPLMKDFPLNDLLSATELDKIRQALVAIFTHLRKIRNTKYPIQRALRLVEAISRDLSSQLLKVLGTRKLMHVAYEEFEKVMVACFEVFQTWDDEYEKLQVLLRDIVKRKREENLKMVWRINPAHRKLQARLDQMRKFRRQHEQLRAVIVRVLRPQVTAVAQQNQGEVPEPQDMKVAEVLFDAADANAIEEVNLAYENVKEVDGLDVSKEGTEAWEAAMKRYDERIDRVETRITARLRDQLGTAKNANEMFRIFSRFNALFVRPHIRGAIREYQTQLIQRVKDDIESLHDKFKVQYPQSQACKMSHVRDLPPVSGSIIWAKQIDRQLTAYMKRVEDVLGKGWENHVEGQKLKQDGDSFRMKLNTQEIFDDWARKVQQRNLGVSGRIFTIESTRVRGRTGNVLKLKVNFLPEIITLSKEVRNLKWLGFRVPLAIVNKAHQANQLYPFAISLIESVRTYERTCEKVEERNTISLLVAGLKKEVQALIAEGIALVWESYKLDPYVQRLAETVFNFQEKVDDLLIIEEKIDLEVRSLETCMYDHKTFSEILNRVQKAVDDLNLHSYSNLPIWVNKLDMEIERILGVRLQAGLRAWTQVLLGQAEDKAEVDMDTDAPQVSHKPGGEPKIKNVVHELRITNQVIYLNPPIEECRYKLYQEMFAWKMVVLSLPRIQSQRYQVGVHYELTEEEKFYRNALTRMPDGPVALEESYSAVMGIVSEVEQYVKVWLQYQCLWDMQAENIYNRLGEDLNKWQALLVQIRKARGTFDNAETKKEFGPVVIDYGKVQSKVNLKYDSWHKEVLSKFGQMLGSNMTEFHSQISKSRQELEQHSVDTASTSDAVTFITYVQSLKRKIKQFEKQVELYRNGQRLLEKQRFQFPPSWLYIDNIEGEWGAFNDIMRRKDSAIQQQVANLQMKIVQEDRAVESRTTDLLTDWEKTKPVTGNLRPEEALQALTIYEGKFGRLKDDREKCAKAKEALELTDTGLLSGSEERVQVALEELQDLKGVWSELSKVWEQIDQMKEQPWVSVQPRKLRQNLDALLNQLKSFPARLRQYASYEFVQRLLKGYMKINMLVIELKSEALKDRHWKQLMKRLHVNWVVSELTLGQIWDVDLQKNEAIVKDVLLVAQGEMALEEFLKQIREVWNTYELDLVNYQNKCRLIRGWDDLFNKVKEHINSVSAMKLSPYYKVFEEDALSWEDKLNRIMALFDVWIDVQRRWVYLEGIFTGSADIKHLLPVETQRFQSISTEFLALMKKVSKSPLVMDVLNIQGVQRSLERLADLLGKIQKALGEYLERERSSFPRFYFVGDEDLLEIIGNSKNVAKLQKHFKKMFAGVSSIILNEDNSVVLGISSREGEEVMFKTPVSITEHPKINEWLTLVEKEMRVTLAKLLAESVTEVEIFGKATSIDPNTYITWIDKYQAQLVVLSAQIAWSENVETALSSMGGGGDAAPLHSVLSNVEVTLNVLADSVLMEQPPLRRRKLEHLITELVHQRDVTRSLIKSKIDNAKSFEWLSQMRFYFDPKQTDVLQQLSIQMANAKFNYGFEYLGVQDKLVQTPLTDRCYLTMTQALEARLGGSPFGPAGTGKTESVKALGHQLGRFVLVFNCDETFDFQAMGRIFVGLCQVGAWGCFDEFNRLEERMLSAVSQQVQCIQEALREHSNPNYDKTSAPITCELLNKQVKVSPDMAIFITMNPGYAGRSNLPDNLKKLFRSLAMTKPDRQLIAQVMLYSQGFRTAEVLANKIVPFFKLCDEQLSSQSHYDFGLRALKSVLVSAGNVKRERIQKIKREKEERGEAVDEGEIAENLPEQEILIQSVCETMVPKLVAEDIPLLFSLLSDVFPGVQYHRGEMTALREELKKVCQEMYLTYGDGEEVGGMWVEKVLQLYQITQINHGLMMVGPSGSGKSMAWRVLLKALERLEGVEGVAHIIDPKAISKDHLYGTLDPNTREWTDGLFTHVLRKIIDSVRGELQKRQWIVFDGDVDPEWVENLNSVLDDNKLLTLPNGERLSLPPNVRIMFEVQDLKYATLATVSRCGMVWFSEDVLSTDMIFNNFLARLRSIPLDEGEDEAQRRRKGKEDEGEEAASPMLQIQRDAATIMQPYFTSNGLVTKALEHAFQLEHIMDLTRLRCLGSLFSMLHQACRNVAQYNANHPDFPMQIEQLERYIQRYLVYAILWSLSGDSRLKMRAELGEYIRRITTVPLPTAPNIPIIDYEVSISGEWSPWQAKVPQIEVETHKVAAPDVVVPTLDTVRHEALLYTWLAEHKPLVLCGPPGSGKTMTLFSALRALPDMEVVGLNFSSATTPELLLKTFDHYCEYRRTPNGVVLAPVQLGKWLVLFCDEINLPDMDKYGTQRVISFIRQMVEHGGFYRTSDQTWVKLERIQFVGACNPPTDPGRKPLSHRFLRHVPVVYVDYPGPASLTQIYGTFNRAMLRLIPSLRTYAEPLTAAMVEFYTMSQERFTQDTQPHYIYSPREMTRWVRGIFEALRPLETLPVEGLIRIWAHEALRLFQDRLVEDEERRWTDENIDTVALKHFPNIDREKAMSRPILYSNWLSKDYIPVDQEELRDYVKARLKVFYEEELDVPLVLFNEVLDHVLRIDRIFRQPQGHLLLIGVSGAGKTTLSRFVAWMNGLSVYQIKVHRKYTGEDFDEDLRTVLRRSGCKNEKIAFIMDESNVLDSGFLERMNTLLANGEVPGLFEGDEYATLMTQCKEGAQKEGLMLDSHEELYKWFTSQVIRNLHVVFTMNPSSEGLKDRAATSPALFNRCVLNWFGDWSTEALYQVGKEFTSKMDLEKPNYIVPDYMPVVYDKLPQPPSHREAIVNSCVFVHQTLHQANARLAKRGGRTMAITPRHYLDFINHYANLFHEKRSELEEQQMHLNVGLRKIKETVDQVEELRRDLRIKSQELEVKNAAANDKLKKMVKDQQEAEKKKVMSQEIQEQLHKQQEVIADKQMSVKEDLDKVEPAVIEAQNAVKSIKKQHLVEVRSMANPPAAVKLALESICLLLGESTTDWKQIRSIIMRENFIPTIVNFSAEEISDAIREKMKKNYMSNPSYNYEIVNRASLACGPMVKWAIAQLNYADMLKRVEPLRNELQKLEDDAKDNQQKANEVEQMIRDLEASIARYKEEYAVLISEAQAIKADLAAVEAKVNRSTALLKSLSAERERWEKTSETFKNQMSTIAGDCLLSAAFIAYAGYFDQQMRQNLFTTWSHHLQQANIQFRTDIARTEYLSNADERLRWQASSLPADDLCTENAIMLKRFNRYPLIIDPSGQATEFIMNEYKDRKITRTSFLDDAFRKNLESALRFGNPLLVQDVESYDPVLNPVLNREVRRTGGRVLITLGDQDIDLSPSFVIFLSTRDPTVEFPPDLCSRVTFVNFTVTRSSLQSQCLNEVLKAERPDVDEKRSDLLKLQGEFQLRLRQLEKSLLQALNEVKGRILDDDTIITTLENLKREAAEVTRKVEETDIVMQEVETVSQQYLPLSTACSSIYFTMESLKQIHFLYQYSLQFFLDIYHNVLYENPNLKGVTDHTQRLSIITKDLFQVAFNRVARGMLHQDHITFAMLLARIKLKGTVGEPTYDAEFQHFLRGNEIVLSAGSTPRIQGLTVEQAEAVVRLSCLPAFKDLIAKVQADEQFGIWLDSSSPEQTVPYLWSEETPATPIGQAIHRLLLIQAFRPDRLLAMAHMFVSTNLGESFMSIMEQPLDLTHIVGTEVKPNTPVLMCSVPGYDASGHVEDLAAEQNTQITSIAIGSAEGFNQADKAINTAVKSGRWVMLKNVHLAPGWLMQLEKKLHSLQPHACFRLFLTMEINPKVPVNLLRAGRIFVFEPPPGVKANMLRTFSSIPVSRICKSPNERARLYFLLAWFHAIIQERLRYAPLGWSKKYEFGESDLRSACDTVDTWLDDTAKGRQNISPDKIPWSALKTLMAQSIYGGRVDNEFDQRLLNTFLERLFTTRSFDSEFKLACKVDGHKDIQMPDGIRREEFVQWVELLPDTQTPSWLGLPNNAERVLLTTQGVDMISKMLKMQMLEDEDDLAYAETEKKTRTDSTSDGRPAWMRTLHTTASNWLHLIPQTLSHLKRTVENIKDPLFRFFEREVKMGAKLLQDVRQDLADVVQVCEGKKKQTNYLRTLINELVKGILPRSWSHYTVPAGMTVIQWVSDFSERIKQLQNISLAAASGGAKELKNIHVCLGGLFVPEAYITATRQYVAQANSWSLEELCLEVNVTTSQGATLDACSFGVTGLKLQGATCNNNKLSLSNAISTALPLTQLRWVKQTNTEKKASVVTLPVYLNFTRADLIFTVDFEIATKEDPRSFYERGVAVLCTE

Turning to “human Lis1 (full-length) (from UniProt P43034 1-410) (natural protein)”, the percent of DDR complexes co-migrating with Lis1 in data set [1] was found to be 70%.
“pig brain dynactin (from UniProt A0A287B8J2 1-1281) (complex)” registered a percent reduction of Nde1 colocalization to dynein in data set [2] of 37%. Besides, the percent of dynein-colocalized Nde1 immediately released, with Lis1 in data set [3] is 50%.

B1: human Nde1 (full-length) (natural protein)
chain: MEDSGKTFSSEEEEANYWKDLAMTYKQRAENTQEELREFQEGSREYEAELETQLQQIETRNRDLLSENNRLRMELETIKEKFEVQHSEGYRQISALEDDLAQTKAIKDQLQKYIRELEQANDDLERAKRATIMSLEDFEQRLNQAIERNAFLESELDEKENLLESVQRLKDEARDLRQELAVQQKQEKPRTPMPSSVEAERTDTAVQATGSVPSTPIAHRGPSSSLNTPGSFRRGLDDSTGGTPLTPAARISALNIVGDLLRKVGALESKLASCRNLVYDQSPNRTGGPASGRSSKNRDGGERRPSSTSVPLGDKGLDTSCRWLSKSTTRSSSSC
modifications: LD655 or LD555 dye in the fluorescence assays
As for B1, the “stoichiometry N” value in data set [4] is 2.

B2: Nde1^1–190 (N-terminus of human Nde1) (domain or fragment)
chain: MEDSGKTFSSEEEEANYWKDLAMTYKQRAENTQEELREFQEGSREYEAELETQLQQIETRNRDLLSENNRLRMELETIKEKFEVQHSEGYRQISALEDDLAQTKAIKDQLQKYIRELEQANDDLERAKRATIMSLEDFEQRLNQAIERNAFLESELDEKENLLESVQRLKDEARDLRQELAVQQKQEKPR
modifications: LD555 dye in the size exclusion experiment
For B2, the “stoichiometry N” value in data set [4] is 2.

Values taken from publication PMC10246013 (bioRxiv, 2023).
